# B1: H3.69_V2/L3.71 AC10 IgG(1/2) ELLGG antibody (XmAb2513) (antibody)
# heavy: QVQLVQSGAEVKKPGASVKVSCKVSGYTFTDYYITWVRQAPGQALEWMGWIYPGSGNTKYSQKFQGRFVFSVDTSASTAYLQISSLKAEDTAVYYCANYGNYWFAYWGQGTLVTVSSASTKGPSVFPLAPSSKSTSGGTAALGCLVKDYFPEPVTVSWNSGALTSGVHTFPAVLQSSGLYSLSSVVTVPSSSLGTQTYICNVNHKPSNTKVDKKVEPKSCDKTHTCPPCPAPELLGGPDVFLFPPKPKDTLMISRTPEVTCVVVDVSHEDPEVQFNWYVDGVEVHNAKTKPREEQFNSTFRVVSVLTVVHQDWLNGKEYKCKVSNKALPAPEEKTISKTKGQPREPQVYTLPPSREEMTKNQVSLTCLVKGFYPSDIAVEWESNGQPENNYKTTPPMLDSDGSFFLYSKLTVDKSRWQQGNVFSCSVMHEALHNHYTQKSLSLSPGK
# light: EIVLTQSPDSLAVSLGERATINCKASQSVDFDGDSYLNWYQQKPGQPPKVLIYAASTLQSGVPSRFSGSGSGTDFTLTINSLEAEDAATYYCQQSNEDPWTFGGGTKVEIKRTVAAPSVFIFPPSDEQLKSGTASVVCLLNNFYPREAKVQWKVDNALQSGNSQESVTEQDSKDSTYSLSSTLTLSKADYEKHKVYACEVTHQGLSSPVTKSFNRGEC
# Biological target: extracellular region of human V158 FcγRIIIa fused with glutathione S-Transferase (GST) (human;, UniProt P08637 17-208)
# Assay: competition AlphaScreen
# extracellular region of human V158 FcγRIIIa fused with glutathione S-Transferase (GST), sequence (P08637 17-208 F176V): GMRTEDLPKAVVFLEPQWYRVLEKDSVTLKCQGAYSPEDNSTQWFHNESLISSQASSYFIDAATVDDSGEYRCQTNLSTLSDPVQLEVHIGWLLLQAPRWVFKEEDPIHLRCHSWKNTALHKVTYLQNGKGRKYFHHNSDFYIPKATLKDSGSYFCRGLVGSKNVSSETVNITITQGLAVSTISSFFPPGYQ
binder,measurement,value
B1,IC50,38 nM

# Reference: patent US20080267976A1 (published 2008)
